Molecular target: vWF A1 domain (UniProt P04275 P04275:1277-1453)
Assay: competition; EMSA competition vs 32P-ARC1172(wt) (=1.00), PBS, 0.1 mg/mL BSA, 37 C
Settings: tags: U-Protein Express BV
Protocol: In order to examine each prepared nucleic acid for its binding to vWF A1 domain, competition with ARC1172 reported as an aptamer binding to vWF A1 domain was tested using each variant nucleic acid. In 20 μL of a reaction solution (1× PBS and 0.1 mg/mL BSA). ARC1172 labeled with [γ-³²P]ATP (final concentration: 100 nM), each unlabeled nucleic acid (ARC1172(wt), ARC1172(wt)-iT, ARC1172-F, ARC 1172-F-iT, and ARC1172-G) (final concentration: 100 nM), and vWF A1 domain (100 nM, U-Protein Express BV) were mixed and incubated at 37° C. for 30 minutes. Then, 25% glycerol containing bromophenol blue was added thereto at a final glycerol concentration of 5%. Labeled ARC1172(wt) bound to vWF A1 domain was separated from labeled ARC1172 in a free form by 10% non-denaturing polyacrylamide gel electrophoresis. The gel was dried and visualized using Bio Image Analyzer FLA-7000, and the radioactivity was measured. The gel shift rate, the inhibition rate, and the relative binding rate were calculated in accordance with Example 2.

vWF A1 domain, sequence (P04275 1277-1453, one chain of several): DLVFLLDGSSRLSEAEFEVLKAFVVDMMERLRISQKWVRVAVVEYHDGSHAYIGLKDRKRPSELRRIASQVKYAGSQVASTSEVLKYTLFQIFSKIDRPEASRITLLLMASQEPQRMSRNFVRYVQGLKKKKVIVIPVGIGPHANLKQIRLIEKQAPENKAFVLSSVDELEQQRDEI

| Binder | binding signal (internal mini-hairpin) | other results |
| --- | --- | --- |
| GGCGTGCAGTGCCGAAGGCCGTGCGGTGCCTCCGTCACGCCCGCGAAGCG (ssDNA) [ARC1172-G] |  | binding signal (internal and 3' mini-hairpins): 1.61 |
| GGCGTGCAGTGCCGAAGGCCGTGCGGTGCCTCCGTCACGCC (ssDNA, 3' idT) [ARC1172-F-iT] | 1.43 |  |
| GGCGTGCAGTGCCGAAGGCCGTGCGGTGCCTCCGTCACGCC (ssDNA) [ARC1172-F] | 1.37 |  |
| GGCGTGCAGTGCCTTCGGCCGTGCGGTGCCTCCGTCACGCC (ssDNA, 3' idT) [ARC1172(wt)-iT] |  | binding signal: 1.12 |
